In patent publication US20200385730, “Aptamers Against Clostridium Difficile” (Biovector, Inc., published 2020) one finds binding result and Kd data, which are given here for seven molecules.

The target of data set [1] is T1, CotA (Clostridium difficile, UniProt Q186G8 SEQ:1-305).
T1 sequence: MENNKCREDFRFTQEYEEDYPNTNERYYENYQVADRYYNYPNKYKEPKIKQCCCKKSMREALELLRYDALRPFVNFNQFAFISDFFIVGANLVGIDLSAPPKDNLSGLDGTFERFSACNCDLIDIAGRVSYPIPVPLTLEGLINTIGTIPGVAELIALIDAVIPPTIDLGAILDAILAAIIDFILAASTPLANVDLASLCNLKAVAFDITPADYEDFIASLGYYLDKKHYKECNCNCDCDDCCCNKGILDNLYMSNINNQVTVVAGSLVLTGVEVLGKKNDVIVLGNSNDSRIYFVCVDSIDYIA
Put plainly: BLI; slower association, little dissociation. The following applies: tags: His6. As to the method:
The refined pools (characterized in FIGS. 21-25) were taken forwards for monoclonal isolation. All aptamers were purified (after elution) and resuspended and stored in water. Before use in selections or binding assays, aptamers were diluted in a final concentration 1× buffer. Individual aptamer clones were isolated and screened by BLI using aptamer concentrations of 0.5 μM, 1 μM, or 2 μM. Again, the target was immobilized onto a Biolayer Interferometry sensor probe and then incubated with each aptamer clone. The results are presented below (FIGS. 26-30).

The next data set concerns the target CdeM (Clostridium difficile). Put plainly: BLI. The following applies: tags: His.
In another data set the target is CotE (rCotE N281-F712) (Clostridium difficile). Put plainly: SPR. The conditions noted are these: tags: C-terminal His. As to the method: (§1) For CotE D2, CotE H2 and CotEC chitinase, aptamers were spotted on a gold surface at a concentration of 5 μM in PBS at a volume of approximately 10 nL in triplicate. Negative aptamers of the same length as the positive aptamers were spotted in the same manner, also in triplicate. Protein was then injected over the chip at a volume of 200 μL, with a flow rate of 50 μL/min in a Horiba (OpenPlex) surface plasmon resonance imaging (SPRi) instrument. Resonance due to binding was obtained by subtracting total resonance on the negative sequences from total resonance on the positive sequences. Disassociation values were computed with the following equation: dx/dt˜−kd*x, wherein dx/dt is the derivative of resonance values as a function of time and x is the resonance value for any given time point. Association values were computed with the following equation: dx/dt˜ka*c*Rmax−(ka*c+kd)*x, where x is the resonance due to binding at specific time points, c is the concentration of injectant, and Rmax is the maximum resonance observed.
(§2) For aptamer CdeC D1 (SEQ ID No 6), the KD was not determined due to protein aggregation.

The target in data set [2] is T2, CotEC chitinase (rCotEC P381-F712) (Clostridium difficile). Kind of data set: BLI. The following applies: tags: C-terminal His.
For data set [3], the target named is T1, CotA. Kind of data set: SPR; CotA immobilized on hydrogel chip by EDC, aptamer injected. The following applies: tags: His6. Here is the method: For CotA C1, the protein was immobilized on a hydrogel chip with EDC-mediated conjugation between primary amines on the protein (side chains on residues) and carboxylic acid groups on the surface of the chip. A protein of similar size was immobilized in the same manner as a negative control. […] For CdeC D1, the protein was received as aggregated, insoluble balls of protein. The binding assay was performed by incubating fluorescently labeled aptamers (FAM) with the protein, and then spinning the tubes down in a microcentrifuge to remove unbound. The pellet was resuspended in selection buffer and spun down again. Bound aptamers were eluted by adding 6 M urea, and spinning again, retaining the supernatant. The aptamers were cleaned up with PCR cleanup columns and the fluorescence was read on a Tecan Sapphire II fluorometer. Excitation was at 497 nm, and emission was at 515 nm. The amount of fluorescence measured in the eluant was divided by the total amount of fluorescence of all fractions.
as §2
(In SPR one partner is held on a chip, and binding of the other changes the refractive index at the surface.)

Data set [4] addresses T2, CotEC chitinase (rCotEC P381-F712). Kind of data set: SPR. The following applies: tags: C-terminal His. As to the method:
as §1, §2

B1: CotA_B1 (ssDNA)
DNA: CCAGTGTAGACTACTCAATGCTTAAGTTCTGGGGACACGTGATGAACGCATTTAATGGGGCGTACTATCCACAGGTCAACC
With B1, in the data set with CotA [1], the binding result is “binds”.

B2: CdeM_E2 (ssDNA)
DNA: CCAGTGTAGACTACTCAATGCCTTCCATTCACCTACCGAGCTAAGCGTTCGACTTAGGTCTGTACTATCCACAGGTCAACC
With B2, the binding result with CdeM is recorded as “binds”.

B3: CotE_D2 (ssDNA)
DNA: CCAGTGTAGACTACTCAATGCTCGACATTTCCGCCCCGACGGCCCTCCTAGTGATGGGGAGAGTACTATCCACAGGTCAACC
For B3, the Kd – broadly, the free concentration of one partner at which half of the binding sites on the other are occupied at equilibrium, for simple one-to-one binding – in the data set with CotE (rCotE N281-F712) was over 250 nM.

B4: Chitinase_H11 (ssDNA)
DNA: CCAGTGTAGACTACTCAATGCCTTGTAAGAAGAACAATCGCCGCTTCGCCTGAATAGGTTCGTACTATCCACAGGTCAACC
As to B4, the binding result in data set [2] is listed as “binds”.

B5: Chitinase_D10 (ssDNA)
DNA: CCAGTGTAGACTACTCAATGCCCTATTAGCTGTATCGATCCGTTTAGTCGCTCCTCCGATAGTACTATCCACAGGTCAACC
On to B5, for which the binding result in data set [2] is given as “binds”.

B6: CotA_C1 (ssDNA)
DNA: CCAGTGTAGACTACTCAATGCCGTGGACTGGTCGGGTTTGGATTCGGCAGATGAATCACTAGTACTATCCACAGGTCAACC
B6 gave a Kd with CotA [3] of 6.87 nM.

B7: Chitinase_D11 (ssDNA)
DNA: CCAGTGTAGACTACTCAATGCCTGGTAAATCGATGACCGCTGCCTCGCCTGAGTAATCATCGTACTATCCACAGGTCAACC
Consider B7, for which the Kd in data set [4] stood at 254 nM.
